# Measurements reported in a protein production outcome set (Wang et al. 2014).
# Assay: label from the status in PepcDB records
row,Sequence,protein production
1,MDWLLTPGPVRLHPKALEALARPQLHHRTEAAREVFLKARGLLREAFRTEGEVLILTGSGTLAMEALVKNLFAPGERVLVPVYGKFSERFYEIALEAGLVVERLDYPYGDTPRPEDVAKEGYAGLLLVHSETSTGALADLPALARAFKEKNPEGLVGADMVTSLLVGEVALEAMGVDAAASGSQKGLMCPPGLGFVALSPRALERLKPRGYYLDLARELKAQKEGESAWTPAINLVLAVAAVLEEVLPRLEEHLALKAWQNALLYGVGEEGGLRPVPKRFSPAVAAFYLPEGVPYARVKEAFAQRGAVIAGGQGPLKGKVFRLSLMGAYDRYEALGVAGMFREVLEEILPAS,not failed
2,MDYFRSPDGPMFMIICGEGPCSGIANDYINESLNKKLNISSGGSDNPWFFFGISYSGALSAWFRLKFPHLTCGSLASSAVVRAIYEFSEFDQQIGESAGQECKLALQETNKLLELGLKVKNKAVKSLFNATELDVDADFLYLTADAAVMAFQYGNPDKLCVPLVEAKKNGSDLVVTYSTYVREYCMRIWGLRVRTYNRKHLRNTVVTADSAYRLWWFQACTELGYFQVAPKYDSVRSHQINTTFHLDLCKSLFGKDVYPKVDATNLYYGGDRLAATKIIFTNGSEDPWRHASKQNSTHEMPSYIIKCRNCGHGSDIRGCPQSPMVIEGKSNNCSLPDYVNKVRQQMVEHIDLWLSECRQSIRSSI,not failed
3,MDYPVWQLWGINGGLLVAIISVLHVFVAQFAVGGGFLLVHAATRAERAGSAEATFWVKRFTRFFLLLSMVFGGVSGVGIWVIISLISPAATSLLVHRFVYAWATEWVFFLGEIVALLVYYYGFGKMRFEDHRNVGLLYGLFAYLSLFMINGIITFMLTPGAWMQTQGFWDGFFNPTFWPSLLFRSALCAMLSGLFGLVWASLIDDERARELMTGVTRLWALVPIPFMAVGAWWYLGALPAPQLEMVLRRTADIRPFLEAFPWVLAALMVGGLAFFTRLPSGARVPVAALLLVLGLCQVGTFEWVRETGRRPWIVHGVIWSNGITPEAGAKSDLEGMLKVARWSGVKQVAEANMHEAGRELWQVQCANCHGLGAPMIDILPRIANRPLTGVEALITGQGALQGYMPPFVGTPAERRALATYLVNERDARRH,failed
4,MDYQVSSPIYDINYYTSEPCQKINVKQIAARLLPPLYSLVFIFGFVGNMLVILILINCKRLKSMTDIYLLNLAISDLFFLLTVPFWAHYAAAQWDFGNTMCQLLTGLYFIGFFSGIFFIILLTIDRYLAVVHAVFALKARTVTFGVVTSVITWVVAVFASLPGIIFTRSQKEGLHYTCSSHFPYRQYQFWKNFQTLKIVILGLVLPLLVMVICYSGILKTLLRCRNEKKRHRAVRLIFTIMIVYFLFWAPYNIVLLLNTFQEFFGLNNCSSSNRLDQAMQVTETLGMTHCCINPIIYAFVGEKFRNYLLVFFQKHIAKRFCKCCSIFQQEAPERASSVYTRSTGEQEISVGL,not failed
5,MDYSIADCLAANQYTTACCIVQSWTRGEVLLSSYQRVALFIFFDSIEKDLVTHIRSLAGLVTTGFLSAQERDKAAQRAEKSDEPGTVAKDDFELLYQLDLGDKIAIAQRLKQHFGDAFRKHFSAKAASLQAAVPVRNSVMHGRPLTVEEHATAFALANDLVKSNGFWPVLHKALVDYNTDPEAITRRAVSFLEHPSEGGIFHNLPLPDYDDTGFVPRPQLEQELKKKILSRHPVVTVLGDGGNGKTALTVQALYSLVNSGDHDFDAIVWVSAKSSKLTVGEIQRIEHAITTSMGLFEEVVGIFEEDKSNPMSRVRQLLENNKILLAIDNLETVLDDTIRDFVSDIPGQSKVVLTSRIPVGGDLTVEVKPLTDNEGEIYLRALIKSYSIKTLSSLRQDELRYFASRLERRPLLLKWFCMGVIAGLPASKIVSNPEMALRFCLENVFDALSPDATMTLSLMSILPRAVSLGVLHYVSSTDIRKLEAGVAELLKFSILETENQSGYELNYRIKPFARAYVARILRLTAEAQEAVIRKFRGLSFAYQAERGAEGQEKYNFRNFTVRSISEALAAGKLREAVKLAYNDEFEAANAIIDTLKVSNHDYFEVFRTDAFIRFRQHDFAGATDAYRSALELSPETPQLYFFFGGFLLRGYGDCPAAIAQFEEALKRDPESTDVKRELARAKMFDYDFEGAMKILSLERTKPLSNMRTQLIFADLQTQNFQRMITHKSAVGIDADLEAPCSAFADFLVTLDPRIVDSKMTEHLRKARSSIVQALHTRSVRAGARVVALLDKLIGELEASRDDTTDHCASASGLLGTLKEKGRKPNFGFLVDRSNREYFVARAMVSDLVWEGLEGGKIASFEVELDNQGRPRATNVYLI,failed
6,MDYVVSYLSIEFGLCFILFFVLYWGLGFSLRLQNVLLLVASYAILASFSLNFLYILLGYTALVYLLGLLSQRYPGRGWVNGLMLLLVLGAFYLFKYQDFFTSTVQNAFAQFGVEVSLPLLEVLLPVGLSFYAFHSVSYLVSINRRELTPGSPFDLALYLAFFPSLIAGPVNRAIPMLAQINPPQLRQVLEPQRALGLIAVAVVKLFFLSSWLANEWVDPVFDSPVAYSAEQILRAVYGYSFLIYFNFSGYTDLVTGIALLLGFRLPQNFNYPYAARNLKEFWGRWHISLSTFIRDYVYIPLGGNRGPVWRGNLNMLLAMLISGLWHGASANFIIWGALHGIGLALYKLCSPLLARGPSWIGADLMARLLTFHYVAFAWIFFRCATLSDAMDMLKGLGELSLGGLLGGGASLLGCLLFVAFYPRIVALLRRLFDAATGLPWLFYPVPLGLFICVVIFASPSGVPGFIYASF,failed
7,MEAETKTLPLENASILSEGSLQEGHRLWIGNLDPKITEYHLLKLLQKFGKVKQFDFLFHKSGALEGQPRGYCFVNFETKQEAEQAIQCLNGKLALSKKLVVRWAHAQVKRYDHNKNDKILPISLEPSSSTEPTQSNLSVTAKIKAIEAKLKMMAENPDAEYPAAPVYSYFKPPDKKRTTPYSRTAWKSRR,failed
8,MEAIDQLVGQWQKDGLSPSQVAEKFSKCVLYVTCEPCIMCASALSFLGIKEVYYGCPNDKFGGCGSILSLHLGSEEAQRGKGYKCRGGIMAEEAVSLFKCFYEQGNPNAPKPHRPVVQRERT,failed
9,MEAIRVFGPKLGSRLSIRSHTTAFPACKLSRFPLTSFPGKHAHLVLLKATTIPLASGDKENNRKFEKLGPSEWGNQFLFAHVDLSEMDALEREIEALKPKVRDMFMSFKGMKSNKKNLFLIYLLVSLGLAHHFEDEIEESVKGCSQEMVEMMDGENDLYTVSIIFWVFRTYGHNISSDIFNRFKGHNGKFKECLATDAKGILSLYEAAHMGTTTDYILDEALSFTLSYLESLAANGTCKPNLVRRIRNALGLLQNKNVEILVAKEYIRFYEQEEDCDKTILEFSMLNLKFLQLHYLQELKLLTKWYKEQDFESKLPPYYRDRIVELHLATLAYINPKYSRVRIILTMIYTIQIILDDTCDRYASLREVESLAATIERWDHNDHAMEGLPDYLKSVAKFIFHTFQEFEREVSSESGGSYSLKATIEDCKRMMRSNLQLAKWAVTGHLPSFDEYLDVAGVEIAVYFTVAGILLGMENINKKEAYEWLIFRDKLVRAMSTKARLVNDLFGYKDDMRRGYVTNSINCYKKQYGVTEEEAFRKLHQMVADGDKMMNEEFLKPINVPHQVLKAVLDTLRAINICYDNEDGFTRLNGNLKNYITSMYVDL,failed
10,MEAKLSSIEIPVGQDELSGTLLTPTGMPGVLFVHGWGGSQHHSLVRAREAVGLGCICMTFDLRGHEGYASMRQSVTRAQNLDDIKAAYDQLASLPYVDAHSIAVVGLSYGGYLSALLTRERPVEWLALRSPALYKDAHWDQPKVSLNADPDLMDYRRRALAPGDNLALAACAQYKGDVLLVEAENDVIVPHPVMRNYADAFTNARSLTSRVIAGADHALSVKEHQQEYTRALIDWLTEMVVGRRIALAKEVVAARKQLLKEQQGDAVSLPGQGSREFRGDIRAVEKTSA,not failed
11,MEAVLNELVSVEDLKNFERKFQSEQAAGSVSKSTQFEYAWCLVRSKYNEDIRRGIVLLEELLPKGSKEEQRDYVFYLAVGNYRLKEYEKALKYVRGLLQTEPQNNQAKELERLIDKAMKK,not failed
12,MEDAAAPGRTEGVLERQGAPPAAGQGGALVELTPTPGGLALVSPYHTHRAGDPLDLVALAEQVQKADEFIRANATNKLTVIAEQIQHLQEQARKVLEDAHRDANLHHVACNIVKKPGNIYYLYKRESGQQYFSIISPKEWGTSCPHDFLGAYKLQHDLSWTPYEDIEKQDAKISMMDMLLSQSVALPPCTEPNFQGLTH,failed
13,MEDETLGFFKKTSSSHARLNVPALVQVAALAIIMIRGLDVLMIFNTLGVRGIGEFIHRSVQTWSLTLVFLSSLVLVFIEIWCAFSLVKGRRWARWLYLLTQITAASYLWAASLGYGYPELFSIPGESKREIFHSLMLQKLPDMLILMLLFVPSTSRRFFQLQ,failed
